Consider 1 substance from article PMC534114.

This test addresses Gab1^F627/659 (Y627F/Y659F) (mouse) (UniProt Q9QYY0).
Sequence of UniProt Q9QYY0 (Q9QYY0 whole entry, stated change not applied): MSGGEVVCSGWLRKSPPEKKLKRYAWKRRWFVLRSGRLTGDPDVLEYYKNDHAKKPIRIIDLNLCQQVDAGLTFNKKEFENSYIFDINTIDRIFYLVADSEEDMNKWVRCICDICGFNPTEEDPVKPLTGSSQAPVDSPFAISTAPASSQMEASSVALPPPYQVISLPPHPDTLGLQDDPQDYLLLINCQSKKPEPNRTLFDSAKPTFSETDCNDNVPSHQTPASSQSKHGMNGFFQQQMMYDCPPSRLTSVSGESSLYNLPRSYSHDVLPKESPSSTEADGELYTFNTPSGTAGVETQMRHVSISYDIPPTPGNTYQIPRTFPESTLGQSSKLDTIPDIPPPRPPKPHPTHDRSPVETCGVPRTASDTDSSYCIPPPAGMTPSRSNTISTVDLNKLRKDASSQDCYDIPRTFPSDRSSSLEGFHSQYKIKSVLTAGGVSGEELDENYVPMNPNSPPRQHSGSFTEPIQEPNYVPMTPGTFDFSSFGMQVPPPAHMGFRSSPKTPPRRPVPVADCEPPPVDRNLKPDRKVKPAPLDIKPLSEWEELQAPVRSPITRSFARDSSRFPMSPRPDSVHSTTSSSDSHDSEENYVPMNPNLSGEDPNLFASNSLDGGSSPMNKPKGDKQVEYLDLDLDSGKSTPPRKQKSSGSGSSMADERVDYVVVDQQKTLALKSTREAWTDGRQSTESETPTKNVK

“p85, the regulatory subunit of PI-3 kinase (from UniProt P26450 1-724) (natural protein)” displayed a Gab1-associated PI-3 kinase activity in anti-Gab1 immunoprecipitates after EGF treatment (100 ng/ml, five minutes), relative to wild type Gab1 of 2 fold and a basal PI-3 kinase activity in anti-Gab1 immunoprecipitates (PIP3 production), relative to wild type Gab1 of 1.6 fold.
